This data set can be described thus: soluble on expression in E. coli; label from the status in PepcDB or PDB records.
Regarding “MPKAEGRIFDFKGHDAIRTDFLEAIDFDGKDEYIKIETDEFSAVCPFSGLPDIGRVIIEYYPDGGKIVELKSLKYYFVSFRNVGIYQEEATKRIYEDLKNLLKTDRIRVTVIYNIRGGIKTTTQMGSLEGKKSGEVE”, the “soluble on expression in E. coli” value is given as “not soluble”.

“MAHHHHHHMRNMNDKNNVHNNYYYLKLENVNNGWRNKELKNDITNENIYQFIGKKKKNYSSSEMSKNSYSTCNTNNNIYINYNNNNNMYNNYNNNIYKNLNNRNINYKGYKFKQNYHTNAYVNISKNRNYYYPSESKKLTNEYNKYDFDNLEKRECKIINDESYKIEETTDMENDMLYIHNDSLPSHQPTINNNTQELYHINNYNNNIYFYEPCEKDNYLDSSIKDIYFDIYSNDTSENIKNETNDIINVDQKGNKYEENNINISNNTHEYKTFVNDDKQLLLDHIKRLEYQNNIFLNNMLNMYYVCIDYIKLQDDKIKEHEQVINSQKEFISNLKKQLSSNDNTNVAYNININHINKYKHVTK”: the “soluble on expression in E. coli” value was “not soluble”.

Consider “MSLAEYKHILVGVDGSRQAKRALDKAIAVALRNQAELIIVTIMSGGDYVGLGNNTQVGFGYVDQQVMDESRQALEALVDQYRQKAQEAGVERVVTSVFYGHAKVDLAKSLPKEYQADLIMLGATGVNVVERMLLGSTASYVVANAVCDVLVVRTDLHNEGHHHHHH”, for which the “soluble on expression in E. coli” value is reported as “soluble”.

As to “MSMSQSRAVQRSSSPNEDRGENQLVVYDLKGNDDTEEEVLPVQSQPLSSRTQCPSIGAFTVQCASCFKWRLMPSMQKYEEIREQLLENPFFCDTAREWKPDISCDVPADIYQDGTRLWAIDKPNISRPPAGWQRLLRIRGEGGTRFADVYYVAPSGKKLRSTVEVQKYLNDNSEYIGEGVKLSQFSFQIPKPLQDDYVRKRPARLLDSIDNTNTPVAKEANPLAWISPDDHISLQLGTPTESGLNNSHYQPSKKKKTSTLSIFGSNDELADR”, the “soluble on expression in E. coli” value is recorded as “soluble”.

In the case of “MAGAITHDHAAAAQGRQGGPLIVTEDVELLDDLLRLCAAAGARPEVHHTVPDGRGTWEAAPLVLVGDDAARRVRGAARRRGVVLVGRDQDDSGVWRRAVEIGADHVLLLPDGEQWLVDRIADVAEGVGRPALTVGVIGGRGGAGASTLACALAVTSARQGRRTLLVDADPLGGGLDVLLGGETAEGLRWPAFAASRGRVGGGALEESLPELHALRVLSWDRGDAVAVPPQAVRAVLAAARRRGGAVVVDLPRRVDEGAAEALAQVDLGVLVVPAELRAIAAAARVASAAGMVLGDLRVAVRGPYAPGLDDREVARLLGLPLLGEVPAEPPVPDGGVPPGGAARGPLARFCAVFWDRALVEAGGVLEHHHHHH”, the “soluble on expression in E. coli” value is recorded as “not soluble”.

As to “MRGSHHHHHHTDPNSPLDEENLTQENQDRGTHVDLGLASANVDFAFSLYKQLVLKAPDKNVIFSPLSISTALAFLSLGAHNTTLTEILKGLKFNLTETSEAEIHQSFQHLLRTLNQSSDELQLSMGNAMFVKEQLSLLDRFTEDAKRLYGSEAFATDFQDSAAAKKLINDYVKNGTRGKITDLIKDLDSQTMMVLVNYIFFKAKWEMPFDPQDTHQSRFYLSKKKWVMVPMMSLHHLTIPYFRDEELSCTVVELKYTGNASALFILPDQDKMEEVEAMLLPETLKRWRDSLEFREIGELYLPKFSISRDYNLNDILLQLGIEEAFTSKADLSGITGARNLAVSQVVHKAVLDVFEEGTEASGTTAVKITLLSALVETRTITRFNRPFLMIIVPTDTQNIFFMSKVTNPKQA”, the “soluble on expression in E. coli” value was “soluble”.

Turning to “MIRELFEKEGFTLDEEQERKFSIYLQELLRWNKVHNLTSIKKPEEIVRRHFIDSVSVVRCFERIGLDLRGKHFADVGSGAGFPGVPLKIYLKDIKLTLIESVSKKCSFLEYLKIKLNEDYRVLCTRAEKVEEKFDVVLARALGEFEEVKEILEKLSIGYVFVYKGSKLKEEWLKDYKLCELSLSFMPKSYILWKKV”, the “soluble on expression in E. coli” value is reported as “soluble”.

In the case of “MGSDKIHHHHHHMLHQANRTGASTRVEFILPDSIEGYIPLKADLHLHTYFSDGHLSPSARVREAWLDGLDAISVTDHIEYHPADTDMIGYLGATLPDGIEAHNVNKKTNVKPKQDLNKSVELTKKAAVSYGLLIIPGIEITREPKGIGHYNALFTTDNNGIYDPDPLTAIRNAKAQGALVMHNHPGWRRESIQHPDFELKAYGEGLIDGIEANNGTAFCPGTIDRAKEDNLFVASTTDLHDTSFEEYIGRGLRRDMTIILAKDRSLDAMRDALENRRTIGYGAGGTLMGQEYLLRQLFMSCVSISPVNGHNIQLKNPTSLRFIIHPDGKNPIVLPEFSSIILSDKDRGFSVDNAWTGADSFLRISL”, the “soluble on expression in E. coli” value is “not soluble”.

Take “MSLKPLFGEKDESNISPITKQLTEEEASKVIAEVNGEQILYKDFYFIYSQQAAYYGLTTEDEDSLSDDTKEILNTIKKELLTQLIQQKLAKQKAKEAGYEVTKERLDEASEAIEEMIRNMAEQMKLSSPSEAESRDFLKEARDFINSELKAMRITMDEYIRDTAEYMIVTDFMEDLTKDIVVTDEEIKKYYDEQLKIQQENPEEAAYAEVQLIQPASSRVKHILIALPEEEQQEYQNLKSEGKDEEAEAYLKEKLEAIKPKAEEVLNKAKNGEDFEALIKEYGEDPGMESEQYKDGYTVTKNSGFIKSFEDASLALGVGEISDLVEGPYGYHIIKVYEKTEAKPYTQEEKKSEIESLLKSQKKTNFMNEKMKEWESASTIVRHDDEGHHHHHH”: the “soluble on expression in E. coli” value was “soluble”.

For the sequence “MKIVKDFSPKEYSQKLVNWLSDSCMNYPAEGFVIGLSGGIDSAVAASLAVKTGLPTTALILPSDNNQHQDMQDALELIEMLNIEHYTISIQPAYEAFLASTQSFTNLQNNRQLVIKGNAQARLRMMYLYAYAQQYNRIVIGTDNACEWYMGYFTKFGDGAADILPLVNLKKSQVFELGKYLDVPKNILDKAPSAGLWQGQTDEDEMGVTYQEIDDFLDGKQVSAKALERINFWHNRSHHKRKLALTPNF”, the “soluble on expression in E. coli” value is “soluble”.

Turning to “VDQFISPEQLQGVIYTDGELQADEMTLEIAELLQSAGPWGQHFPEPLFEGQCRILQQRILAGKHLKLMIQFNDRFELYDAIWFNVDLRTFPDLSIKHAQIVYKLDINEFRGNKNIQLRVESLIPL”, the “soluble on expression in E. coli” value is listed as “not soluble”.

Regarding “MSVDKYGKVYLIGAGPGNPNYLTKKAERLIREADVILYDRLVNPLILQYANLTTEIIDVGKKPYAKHIQQEKINECIVEAARRYNKVVRLKGGDPAIFGRVQEEVDTLNNFNIAFEIVPGVTSASAAVATMQTGLTMRAVAKSVTFSTGHFKDSEENEVDVNALVNGGTLAIYMGVKRLGKIIAQIQQYTDIDYPIAIVFQASCFNEFVVKGRLSNIVGKLEHYAIEAKPGICIIGEVVGYTENVSTTSNPTQQFYVVSGSRHDALMLCEHLYDEGYGCLLNPNDTSNGTYHSSQYDYYDAFIKQQENVTYISTDRADANTVLCH”, the “soluble on expression in E. coli” value is reported as “not soluble”.

In the case of “MSLINARLIAFEDQWVPALNAPLKQAILADSQDAQLAAAMTYSVLAGGKRLRPLLTVATMQSLGVTFVPERHWRPVMALELLHTYSLIHDDLPAMDNDALRRGEPTNHVKFGAGMATLAGDGLLTLAFQWLTATDLPATMQAALVQALATAAGPSGMVAGQAKDIQSEHVNLPLSQLRVLHKEKTGALLHYAVQAGLILGQAPEAQWPAYLQFADAFGLAFQIYDDILDVVSSPAEMGKATQKDADEAKNTYPGKLGLIGANQALIDTIHSGQAALQGLPTSTQRDDLAAFFSYFDTERVNEGHHHHHH”, the “soluble on expression in E. coli” value is “soluble”.

“MSLQKNGYRIQFTSSRIRDLMYRTTFDPKKMDGDIILNLSLIDKKDLDDVLGIFKMVISSGLSVTPYVKVISEGESIGDMTIEKGKVGIGTVCSITIDGVLLKAGIPVNPKLGGVVQIRNGIPVRFTDVLTYVSTTVDPLEILMSQGITSVSEMLRTGSGKVLANLREAPMVARDEIESNLSDLLDAGFSGILEVGEPNTRVLDVPIERDHLGIVVIGGTNPMAVVQEYGIPIDTSAMSRLISFKEMSRIEDLVEGHHHHHH”: the “soluble on expression in E. coli” value is on record as “soluble”.

For the sequence “MFEGKLVRLRAYRKEDIEKALEFANDPEVKKCLVPGIPFPWRKEDEEKWYQSLNPFSTDSYSFAIEKLSDGEYIGGCSINKIDWKNSVAEVGIFLGRPYWSQGYGTDAMRVLVRFIFNEMNMNKIKLHVFSFNERAKRVYEKIGFKVEGILRQELFREGRYHDVIVMGLLKSEWEDLTETDL”, the “soluble on expression in E. coli” value is listed as “soluble”.

On to “MYVYKRDGRKEPVQFDKITARISRLCYGLDPKHIDAVKVTQRIISGVYEGVTTIELDNLAAETCAYMTTVHPDYATLAARIAISNLHKQTTKQFSKVVEDLYRYVNAATGKPAPMISDDVYNIVMENKDKLNSAIVYDRDFQYSYFGFKTLERSYLLRINGQVAERPQHLIMRVALGIHGRDIEAALETYNLMSLKYFTHASPTLFNAGTPKPQMSSCFLVAMKEDSIEGIYDTLKECALISKTAGGIGLHIHNIRSTGSYIAGTNGTSNGLIPMIRVFNNTARYVDQGGNKRPGAFALYLEPWHADIFDFIDIRKNHGKEEIRARDLFPALWIPDLFMKRVEENGTWTLFSPTSAPGLSDCYGDEFEALYTRYEKEGRGKTIKAQKLWYSILEAQTETGTPFVVYKDACNRKSNQKNLGVIKSSNLCCEIVEYSAPDETAVCNLASVALPAFIETSEDGKTSTYNFKKLHEIAKVVTRNLNRVIDRNYYPVEEARKSNMRHRPIALGVQGLADTFMLLRLPFDSEEARLLNIQIFETIYHASMEASCELAQKDGPYETFQGSPASQGILQFDMWDQKPYGMWDWDTLRKDIMKHGVRNSLTMAPMPTASTSQILGYNECFEPVTSNMYSRRVLSGEFQVVNPYLLRDLVDLGIWDEGMKQYLITQNGSIQGLPNVPQELKDLYKTVWEISQKTIINMAADRSVYIDQSHSLNLFLRAPTMGKLTSMHFYGWKKGLKTGMYYLRTQAASAAIQFTIDQKIADQATENVADISNLKRPSYMPSSASYAASDFVPAAVTANATIPSLDSSSEASREASPAPTGSHSLTKGMAELNVQESKVEVPEVPAPTKNEEKAAPIVDDEETEFDIYNSKVIACAIDNPEACEMCSG”, for which the “soluble on expression in E. coli” value was “soluble”.

With “MKGDHYSPNWPQLALSKKQSVNWVCERCGVQCLKPGEGKGLLKEERYRFRMAVHHCDYDPSNNSPSNLMALCSLCHLYYHRRQQGNISLGQLSLEFYLEHHHHHH”, the “soluble on expression in E. coli” value is “soluble”.

Take “MGSDKIHHHHHHMHFNAPSYPKQWFDTKSAGTPVVILTGMGCSYEEWYEVIQSLRPAHRILSFHRHSWKEGDGIHRTGHAIQQLQTLLSGSNVDEPILLIGHSYGGLIAQEFTKLFPERIKGLILVDSTSVDLHELDALDTPVLDAVSSDAAWQALCRDYAIKTKEQLKQLLQPVLTGAQKRLPQAVQDALVDFQTEPDLYAMMDSEVEHWKTDAARIRTGPFPDVPLIVIGRDPELSIQDGINDGLPEDELRQVEETWHRLVLRQATLTKQADFITATGAGHAIHLDRPDLVISAVTKLDVT”: the “soluble on expression in E. coli” value is reported as “not soluble”.

“MAGNFWQSSHYLQWILDKQDLLKERQKDLKFLSEEEYWKLQIFFTNVIQALGEHLKLRQQVIATATVYFKRFYARYSLKSIDPVLMAPTCVFLASKVEEFGVVSNTRLIAAATSVLKTRFSYAFPKEFPYRMNHILECEFYLLELMDCCLIVYHPYRPLLQYVQDMGQEDMLLPLAWRIVNDTYRTDLCLLYPPFMIALACLHVACVVQQKDARQWFAELSVDMEKILEIIRVILKLYEQWKNFDERKEMATILSKMPKPKPPPNSEGEQGPNGSQNSSYSQS”: the “soluble on expression in E. coli” value is “soluble”.

On to “TITEWSVNMYNHLRGTGEDENILFSPLSIALAMGMMELGA”, for which the “soluble on expression in E. coli” value is reported as “soluble”.
